Laboratory results published in PMC7954794, “Protein context shapes the specificity of SH3 domain-mediated interactions in vivo” (Nature Communications, 2021).

B1: YLR258W (protein, UniProt P27472 1-705, looked up)
Glycogen [starch] synthase …: MSRDLQNHLLFETATEVANRVGGIYSVLKSKAPITVAQYKDHYHLIGPLNKATYQNEVDILDWKKPEAFSDEMRPVQHALQTMESRGVHFVYGRWLIEGAPKVILFDLDSVRGYSNEWKGDLWSLVGIPSPENDFETNDAILLGYTVAWFLGEVAHLDSQHAIVAHFHEWLAGVALPLCRKRRIDVVTIFTTHATLLGRYLCASGSFDFYNCLESVDVDHEAGRFGIYHRYCIERAAAHSADVFTTVSQITAFEAEHLLKRKPDGILPNGLNVIKFQAFHEFQNLHALKKEKINDFVRGHFHGCFDFDLDNTLYFFIAGRYEYKNKGADMFIEALARLNYRLKVSGSKKTVVAFIVMPAKNNSFTVEALKGQAEVRALENTVHEVTTSIGKRIFDHAIRYPHNGLTTELPTDLGELLKSSDKVMLKRRILALRRPEGQLPPIVTHNMVDDANDLILNKIRQVQLFNSPSDRVKMIFHPEFLNANNPILGLDYDEFVRGCHLGVFPSYYEPWGYTPAECTVMGVPSITTNVSGFGAYMEDLIETNQAKDYGIYIVDRRFKAPDESVEQLVDYMEEFVKKTRRQRINQRNRTERLSDLLDWKRMGLEYVKARQLALRRGYPDQFRELVGEELNDSNMDALAGGKKLKVARPLSVPGSPRDLRSNSTVYMTPGDLGTLQEVNNADDYFSLGVNPAADDDDDGPYADDS
B2: YNR007C (protein, UniProt P40344 1-310, looked up)
Autophagy-related protein 3: MIRSTLSSWREYLTPITHKSTFLTTGQITPEEFVQAGDYLCHMFPTWKWNEESSDISYRDFLPKNKQFLIIRKVPCDKRAEQCVEVEGPDVIMKGFAEDGDEDDVLEYIGSETEHVQSTPAGGTKDSSIDDIDELIQDMEIKEEDENDDTEEFNAKGGLAKDMAQERYYDLYIAYSTSYRVPKMYIVGFNSNGSPLSPEQMFEDISADYRTKTATIEKLPFYKNSVLSVSIHPCKHANVMKILLDKVRVVRQRRRKELQEEQELDGVGDWEDLQDDIDDSLRVDQYLIVFLKFITSVTPSIQHDYTMEGW
B3: YMR080C (protein, UniProt P30771 1-971, looked up)
ATP-dependent helicase NAM7: MVGSGSHTPYDISNSPSDVNVQPATQLNSTLVEDDDVDNQLFEEAQVTETGFRSPSASDNSCAYCGIDSAKCVIKCNSCKKWFCNTKNGTSSSHIVNHLVLSHHNVVSLHPDSDLGDTVLECYNCGRKNVFLLGFVSAKSEAVVVLLCRIPCAQTKNANWDTDQWQPLIEDRQLLSWVAEQPTEEEKLKARLITPSQISKLEAKWRSNKDATINDIDAPEEQEAIPPLLLRYQDAYEYQRSYGPLIKLEADYDKQLKESQALEHISVSWSLALNNRHLASFTLSTFESNELKVAIGDEMILWYSGMQHPDWEGRGYIVRLPNSFQDTFTLELKPSKTPPPTHLTTGFTAEFIWKGTSYDRMQDALKKFAIDKKSISGYLYYKILGHQVVDISFDVPLPKEFSIPNFAQLNSSQSNAVSHVLQRPLSLIQGPPGTGKTVTSATIVYHLSKIHKDRILVCAPSNVAVDHLAAKLRDLGLKVVRLTAKSREDVESSVSNLALHNLVGRGAKGELKNLLKLKDEVGELSASDTKRFVKLVRKTEAEILNKADVVCCTCVGAGDKRLDTKFRTVLIDESTQASEPECLIPIVKGAKQVILVGDHQQLGPVILERKAADAGLKQSLFERLISLGHVPIRLEVQYRMNPYLSEFPSNMFYEGSLQNGVTIEQRTVPNSKFPWPIRGIPMMFWANYGREEISANGTSFLNRIEAMNCERIITKLFRDGVKPEQIGVITPYEGQRAYILQYMQMNGSLDKDLYIKVEVASVDAFQGREKDYIILSCVRANEQQAIGFLRDPRRLNVGLTRAKYGLVILGNPRSLARNTLWNHLLIHFREKGCLVEGTLDNLQLCTVQLVRPQPRKTERPMNAQFNVESEMGDFPKFQDFDAQSMVSFSGQIGDFGNAFVDNTELSSYINNEYWNFENFKSAFSQKQNRNEIDDRNLYQEEASHLNSNFARELQREEQKHELSKDFSNLGI
B4: YGR178C (protein, UniProt P53297 1-722, looked up)
PAB1-binding protein 1: MKGNFRKRDSSTNSRKGGNSDSNYTNGGVPNQNNSSMFYENPEITRNFDDRQDYLLANSIGSDVTVTVTSGVKYTGLLVSCNLESTNGIDVVLRFPRVADSGVSDSVDDLAKTLGETLLIHGEDVAELELKNIDLSLDEKWENSKAQETTPARTNIEKERVNGESNEVTKFRTDVDISGSGREIKERKLEKWTPEEGAEHFDINKGKALEDDSASWDQFAVNEKKFGVKSTFDEHLYTTKINKDDPNYSKRLQEAERIAKEIESQGTSGNIHIAEDRGIIIDDSGLDEEDLYSGVDRRGDELLAALKSNSKPNSNKGNRYVPPTLRQQPHHMDPAIISSSNSNKNENAVSTDTSTPAAAGAPEGKPPQKTSKNKKSLSSKEAQIEELKKFSEKFKVPYDIPKDMLEVLKRSSSTLKSNSSLPPKPISKTPSAKTVSPTTQISAGKSESRRSGSNISQGQSSTGHTTRSSTSLRRRNHGSFFGAKNPHTNDAKRVLFGKSFNMFIKSKEAHDEKKKGDDASENMEPFFIEKPYFTAPTWLNTIEESYKTFFPDEDTAIQEAQTRFQQRQLNSMGNAVPGMNPAMGMNMGGMMGFPMGGPSASPNPMMNGFAAGSMGMYMPFQPQPMFYHPSMPQMMPVMGSNGAEEGGGNISPHVPAGFMAAGPGAPMGAFGYPGGIPFQGMMGSGPSGMPANGSAMHSHGHSRNYHQTSHHGHHNSSTSGHK
B5: YAR042W (protein, UniProt P35845 1-1188, looked up)
Oxysterol-binding protein …: MEQPDLSSVAISKPLLKLKLLDALRQGSFPNLQDLLKKQFQPLDDPNVQQVLHLMLHYAVQVAPMAVIKEIVHHWVSTTNTTFLNIHLDLNERDSNGNTPLHIAAYQSRGDIVAFLLDQPTINDCVLNNSHLQAIEMCKNLNIAQMMQVKRSTYVAETAQEFRTAFNNRDFGHLESILSSPRNAELLDINGMDPETGDTVLHEFVKKRDVIMCRWLLEHGADPFKRDRKGKLPIELVRKVNENDTATNTKIAIDIELKKLLERATREQSVIDVTNNNLHEAPTYKGYLKKWTNFAQGYKLRWFILSSDGKLSYYIDQADTKNACRGSLNMSSCSLHLDSSEKLKFEIIGGNNGVIRWHLKGNHPIETNRWVWAIQGAIRYAKDREILLHNGPYSPSLALSHGLSSKVSNKENLHATSKRLTKSPHLSKSTLTQNDHDNDDDSTNNNNNKSNNDYDDNNNNNNNDDDDYDDDDESRPLIEPLPLISSRSQSLSEITPGPHSRKSTVSSTRAADIPSDDEGYSEDDSDDDGNSSYTMENGGENDGDEDLNAIYGPYIQKLHMLQRSISIELASLNELLQDKQQHDEYWNTVNTSIETVSEFFDKLNRLTSQREKRMIAQMTKQRDVNNVWIQSVKDLEMELVDKDEKLVALDKERKNLKKMLQKKLNNQPQVETEANEESDDANSMIKGSQESTNTLEEIVKFIEATKESDEDSDADEFFDAEEAASDKKANDSEDLTTNKETPANAKPQEEAPEDESLIVISSPQVEKKNQLLKEGSFVGYEDPVRTKLALDEDNRPKIGLWSVLKSMVGQDLTKLTLPVSFNEPTSLLQRVSEDIEYSHILDQAATFEDSSLRMLYVAAFTASMYASTTNRVSKPFNPLLGETFEYARTDGQYRFFTEQVSHHPPISATWTESPKWDFYGECNVDSSFNGRTFAVQHLGLWYITIRPDHNISVPEETYSWKKPNNTVIGILMGKPQVDNSGDVKVTNHTTGDYCMLHYKAHGWTSAGAYEVRGEVFNKDDKKLWVLGGHWNDSIYGKKVTARGGELTLDRIKTANSATGGPKLDGSKFLIWKANERPSVPFNLTSFALTLNALPPHLIPYLAPTDSRLRPDQRAMENGEYDKAAAEKHRVEVKQRAAKKEREQKGEEYRPKWFVQEEHPVTKSLYWKFNGEYWNKRKNHDFKDCADIF
B6: YNL287W (protein, UniProt P32074 1-935, looked up)
Coatomer subunit gamma: MSAHTYKKFENSTSGDLPDKMTIYQDCMNTFNESPVNSKRCRLLISRLLRLLAQGETFPQNEATALFFSISKLFQHQNDPLRQAVYLAIKELSGISEDVLMATSSIMKDVQNGSDLIKPDAIRSLTYVLDESTAFSAERLLKSAVVSRHPSISSAALCTSYHLLPISEVTIRRFTNETQEAVLDLKQFPNQHGNSEYYPNSTYISQYHALGLLYQLKKTDKMALLKLVRHFSENNSMKNQLAKVELVKIVNDLIYRDPQLFSQFRPLLSDWLSNKFESVQLETAKLITSFATRNSRLVAPELYAAAISALQSLLTVPRVSSRFAALRILNRISMVSPEKIVVCNPELESLINDSNRNISTYAITTLLKTGTSKNISSLISTITNFIHDVSDDFKIIIIDAVRTLSLNFPQEWKSILNFLIDVLKNSEGGFKFKNSIVEALIDIVSFVPQSKELALENLCDFIEDCEFNEILVRILHLLGKEGPSAPNPSLYVRHIYNRVVLENSIIRSAAVVALSKFALTKNDPTLYESIISLLKRIANDKDDEVRDRATIALEFIDSARNKDDVIAQNLIESKYFYDIPSLESKLSSYISSNTDSFATAFDVNQVRKFTEDEMKAINLKRKQEQIFNQKSETTLDTTPEAESVPEKRADANSFAGPNLDDHQEDLLATKYADELLSIEQIKPFGQLVNSSRAISLTEPEAEFVVRGVKHLFKDNVVLQFNITNTLTDIALDNVSVVCTPEISDEAELEELFTLQVDRLLPSEEAACYVAFKKLDEIVMEGFLNNLTFTTKEINPDTNEPFDGDEGFQDEYEIDSIFLNAGDYVKSSFTGNFSATFDELPCEEVAVFNIQEDLSIQEVVDKIILNSSCLPVESTQFAPSDSNSHTLKLFGKSALTGSKVALQIKMIKSSKGLALKVHGKGEDSLLCSDLVNGLMQ
B7: YDL160C (protein, UniProt P39517 1-506, looked up)
ATP-dependent RNA helicase …: MGSINNNFNTNNNSNTDLDRDWKTALNIPKKDTRPQTDDVLNTKGNTFEDFYLKRELLMGIFEAGFEKPSPIQEEAIPVAITGRDILARAKNGTGKTAAFVIPTLEKVKPKLNKIQALIMVPTRELALQTSQVVRTLGKHCGISCMVTTGGTNLRDDILRLNETVHILVGTPGRVLDLASRKVADLSDCSLFIMDEADKMLSRDFKTIIEQILSFLPPTHQSLLFSATFPLTVKEFMVKHLHKPYEINLMEELTLKGITQYYAFVEERQKLHCLNTLFSKLQINQAIIFCNSTNRVELLAKKITDLGYSCYYSHARMKQQERNKVFHEFRQGKVRTLVCSDLLTRGIDIQAVNVVINFDFPKTAETYLHRIGRSGRFGHLGLAINLINWNDRFNLYKIEQELGTEIAAIPATIDKSLYVAENDETVPVPFPIEQQSYHQQAIPQQQLPSQQQFAIPPQQHHPQFMVPPSHQQQQAYPPPQMPSQQGYPPQQEHFMAMPPGQSQPQY
B8: YJL151C (protein, UniProt P14359 1-133, looked up)
Protein SNA3: MDRDHINDHDHRMSYSINKDDLLLMVLAVFIPPVAVWKRKGMFNRDTLLNLLLFLLLFFPAIIHACYVVYETSSERSYDLSRRHATAPAVDRDLEAHPAEESQAQPPAYDEDDEAGADVPLMDNKQQLSSGRT

Test system: ABP1
Test: DHFR-PCA on solid medium, bait ABP1 (Fig. 1B)
Type: cell-based, Saccharomyces cerevisiae
Conditions: bait ABP1, label = prey; 2-4 replicates
Source text: Supplement 41467_2021_21873_MOESM8_ESM.xlsx, sheet "Fig1B" | column: medsize; medrep; Ratio; Score

First: B1
Second: B2
The “medrep (log2 median colony size normalized to plate background, PCA score)” value of the first is higher: 1.989 for the first, 1.566 for the second.

B3 and B4 are within 0.2 log units of each other in “medrep (log2 median colony size normalized to plate background, PCA score)” value: 1.542 for the first, 1.414 for the second.

Compared with B5, B6 is higher in “medrep (log2 median colony size normalized to plate background, PCA score)” value: 1.62 for the first, 2.55 for the second.

First: B7
Second: B8
The “medrep (log2 median colony size normalized to plate background, PCA score)” value of the first is higher: 1.807 for the first, 1.425 for the second.

Same assay, conditions: bait ABP1, label = prey; only significant differences showed; PPIs completely lost have a ratio of 0.1 and the gained PPIs 2.5

B1 and B2 are the same in “Ratio (SH3-deleted/WT medrep)” value: 2.5 for the first, 2.5 for the second.

B3 and B4 are the same in “Ratio (SH3-deleted/WT medrep)” value: 2.5 for the first, 2.5 for the second.

Going from B5 to B6, the “Ratio (SH3-deleted/WT medrep)” value falls from 2.5 to 1.797.

B7 and B8 are the same in “Ratio (SH3-deleted/WT medrep)” value: 2.5 for the first, 2.5 for the second.
